The results in this text go back to publication PMC4399498 (Nature communications, 2014).

One data set addresses T1, KdpE-E216A (Escherichia coli, UniProt P21866 1-225, E216A).
T1 sequence: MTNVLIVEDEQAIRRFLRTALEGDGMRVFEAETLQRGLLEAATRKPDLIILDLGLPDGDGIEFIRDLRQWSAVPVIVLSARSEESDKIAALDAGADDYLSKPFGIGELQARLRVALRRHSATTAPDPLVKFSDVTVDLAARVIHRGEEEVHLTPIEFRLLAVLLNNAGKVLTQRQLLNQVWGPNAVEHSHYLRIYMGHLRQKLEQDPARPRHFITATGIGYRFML
The experiment in a line: fluorescence anisotropy.

A further data set has as its target T2, KdpE (Escherichia coli, UniProt P21866 1-225).
T2 sequence: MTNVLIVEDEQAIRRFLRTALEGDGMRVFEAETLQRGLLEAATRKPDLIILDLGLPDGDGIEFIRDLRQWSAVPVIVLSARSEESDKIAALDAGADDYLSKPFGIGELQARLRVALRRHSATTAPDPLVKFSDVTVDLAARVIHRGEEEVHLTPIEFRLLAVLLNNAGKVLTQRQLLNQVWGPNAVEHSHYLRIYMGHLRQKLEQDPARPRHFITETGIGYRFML
The experiment in a line: fluorescence anisotropy.

B1: 24-bp KdpE site DNA, TAMRA (anisotropy) (dsDNA)
DNA 1: CATTTTTATACTTTTTTTACACCC
DNA 2: GGGTGTAAAAAAAGTATAAAAATG
B1: the Kd was 0.0035 ± 0.0005 µM with KdpE-E216A and 0.03 ± 0.004 µM with KdpE.
